system: Escherichia coli TOP10; experiment: shrunken log2 fold change of peptide-encoding DNA abundance (4.5 h post-induction vs induction); higher = less antimicrobial activity (less host growth inhibition); conditions: time post-induction: 4.5 h; library: site-saturation at positions 5, 18, 19, 20
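Also: peptides expressed intracellularly from a pBAD plasmid library in pooled LB shake-flask culture, induced with 0.3% L-arabinose, DNA abundance read by NGS, three biological replicates, DESeq2 with apeglm shrinkage.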

Question: For RRIRGRPPRLPRPRPRPCCYPRP, which “shrunken log2 fold change” value is on record?
Answer: Its value is 0.786.

Question: For RRIRFRPPRLPRPRPRPSKEPRP, which “shrunken log2 fold change” value is on record?
Answer: Its value is 1.3.

Question: With RRIRQRPPRLPRPRPRPNRWPRP as the sequence, how does the “shrunken log2 fold change” value read?
Answer: The value was -0.0161.

Question: How did the “shrunken log2 fold change” value turn out when RRIRCRPPRLPRPRPRPQAYPRP was run?
Answer: The value was 0.0414.

Question: For RRIRSRPPRLPRPRPRPKEGPRP, which “shrunken log2 fold change” value is on record?
Answer: Its value is -0.0287.

Question: For RRIRRRPPRLPRPRPRPGGFPRP, which “shrunken log2 fold change” value is on record?
Answer: The value was 0.36.

Question: Which “shrunken log2 fold change” value does the source give for RRIRQRPPRLPRPRPRPGRMPRP here?
Answer: Its value is 0.0366.

Question: With RRIRFRPPRLPRPRPRPSPCPRP as the sequence, how does the “shrunken log2 fold change” value read?
Answer: The value was -0.508.

Question: For RRIRMRPPRLPRPRPRPIDDPRP, which “shrunken log2 fold change” value is on record?
Answer: Its value is -0.0846.

Question: For RRIRIRPPRLPRPRPRPGDSPRP, which “shrunken log2 fold change” value is on record?
Answer: The value was 0.0577.

Question: How did the “shrunken log2 fold change” value turn out when RRIRMRPPRLPRPRPRPRNVPRP was run?
Answer: The value was 0.29.

Question: With RRIRYRPPRLPRPRPRPDPSPRP as the sequence, how does the “shrunken log2 fold change” value read?
Answer: The value was -0.566.

Question: How did the “shrunken log2 fold change” value turn out when RRIRCRPPRLPRPRPRPALVPRP was run?
Answer: The value was 0.281.

Question: With RRIRLRPPRLPRPRPRPWPKPRP as the sequence, how does the “shrunken log2 fold change” value read?
Answer: Its value is -0.0141.

Question: How did the “shrunken log2 fold change” value turn out when RRIRCRPPRLPRPRPRPSSYPRP was run?
Answer: Its value is -0.531.

Question: With RRIRWRPPRLPRPRPRPFKVPRP as the sequence, how does the “shrunken log2 fold change” value read?
Answer: Its value is 0.00438.

Question: How did the “shrunken log2 fold change” value turn out when RRIRWRPPRLPRPRPRPECMPRP was run?
Answer: The value was 0.623.

Question: How did the “shrunken log2 fold change” value turn out when RRIRTRPPRLPRPRPRPQNLPRP was run?
Answer: The value was -0.135.

Question: How did the “shrunken log2 fold change” value turn out when RRIRSRPPRLPRPRPRPKSNPRP was run?
Answer: The value was -0.347.

Question: For RRIRDRPPRLPRPRPRPPNNPRP, which “shrunken log2 fold change” value is on record?
Answer: Its value is -0.261.

Question: For RRIRRRPPRLPRPRPRPKLQPRP, which “shrunken log2 fold change” value is on record?
Answer: The value was 0.179.

Question: How did the “shrunken log2 fold change” value turn out when RRIRERPPRLPRPRPRPDAYPRP was run?
Answer: The value was -0.532.

Question: Which “shrunken log2 fold change” value does the source give for RRIRWRPPRLPRPRPRPYCSPRP here?
Answer: Its value is -0.0518.

Question: With RRIRHRPPRLPRPRPRPIHNPRP as the sequence, how does the “shrunken log2 fold change” value read?
Answer: The value was -0.545.

Question: With RRIRMRPPRLPRPRPRPGYIPRP as the sequence, how does the “shrunken log2 fold change” value read?
Answer: Its value is -0.0175.

Question: RRIRPRPPRLPRPRPRPRFRPRP was tested. Which “shrunken log2 fold change” value did it give?
Answer: The value was 0.217.

Question: For RRIRFRPPRLPRPRPRPNWVPRP, which “shrunken log2 fold change” value is on record?
Answer: Its value is -0.126.

Question: With RRIRTRPPRLPRPRPRPNHMPRP as the sequence, how does the “shrunken log2 fold change” value read?
Answer: Its value is -0.792.

Question: RRIRFRPPRLPRPRPRPWGFPRP was tested. Which “shrunken log2 fold change” value did it give?
Answer: The value was 0.0091.

Question: For RRIRARPPRLPRPRPRPIHHPRP, which “shrunken log2 fold change” value is on record?
Answer: Its value is -0.302.

Question: With RRIRYRPPRLPRPRPRPFASPRP as the sequence, how does the “shrunken log2 fold change” value read?
Answer: The value was -0.000244.

Question: Which “shrunken log2 fold change” value does the source give for RRIRFRPPRLPRPRPRPKCAPRP here?
Answer: Its value is -0.0345.

Question: Which “shrunken log2 fold change” value does the source give for RRIRLRPPRLPRPRPRPKWGPRP here?
Answer: Its value is 0.0532.

Question: For RRIRRRPPRLPRPRPRPTGMPRP, which “shrunken log2 fold change” value is on record?
Answer: The value was 0.906.

Question: Which “shrunken log2 fold change” value does the source give for RRIRGRPPRLPRPRPRPMGHPRP here?
Answer: The value was 0.202.

Question: Which “shrunken log2 fold change” value does the source give for RRIRWRPPRLPRPRPRPEKCPRP here?
Answer: The value was 0.0983.

Question: RRIRRRPPRLPRPRPRPNIGPRP was tested. Which “shrunken log2 fold change” value did it give?
Answer: Its value is -0.89.

Question: Which “shrunken log2 fold change” value does the source give for RRIRLRPPRLPRPRPRPGNYPRP here?
Answer: Its value is 0.0343.

Question: RRIRHRPPRLPRPRPRPKHLPRP was tested. Which “shrunken log2 fold change” value did it give?
Answer: The value was -0.237.

Question: RRIRDRPPRLPRPRPRPIHHPRP was tested. Which “shrunken log2 fold change” value did it give?
Answer: Its value is -0.649.

Question: RRIRNRPPRLPRPRPRPESYPRP was tested. Which “shrunken log2 fold change” value did it give?
Answer: Its value is -0.0446.

Question: Which “shrunken log2 fold change” value does the source give for RRIRSRPPRLPRPRPRPPSFPRP here?
Answer: The value was 0.0731.

Question: RRIRRRPPRLPRPRPRPYWGPRP was tested. Which “shrunken log2 fold change” value did it give?
Answer: Its value is 0.133.

Question: Which “shrunken log2 fold change” value does the source give for RRIRWRPPRLPRPRPRPTKCPRP here?
Answer: The value was -0.121.

Question: How did the “shrunken log2 fold change” value turn out when RRIRMRPPRLPRPRPRPYVQPRP was run?
Answer: Its value is 0.056.

Question: RRIRPRPPRLPRPRPRPALIPRP was tested. Which “shrunken log2 fold change” value did it give?
Answer: Its value is -0.0205.

Question: Which “shrunken log2 fold change” value does the source give for RRIRQRPPRLPRPRPRPMVFPRP here?
Answer: The value was 0.111.

Question: RRIRSRPPRLPRPRPRPGGKPRP was tested. Which “shrunken log2 fold change” value did it give?
Answer: Its value is 0.0269.

Question: How did the “shrunken log2 fold change” value turn out when RRIRARPPRLPRPRPRPKARPRP was run?
Answer: The value was 1.16.

Question: For RRIRMRPPRLPRPRPRPRWPPRP, which “shrunken log2 fold change” value is on record?
Answer: Its value is 1.06.

Question: How did the “shrunken log2 fold change” value turn out when RRIRGRPPRLPRPRPRPKCCPRP was run?
Answer: Its value is 0.56.

Question: How did the “shrunken log2 fold change” value turn out when RRIRKRPPRLPRPRPRPVPWPRP was run?
Answer: The value was 0.572.

Question: How did the “shrunken log2 fold change” value turn out when RRIRKRPPRLPRPRPRPQMRPRP was run?
Answer: The value was 0.292.

Question: RRIRCRPPRLPRPRPRPEYEPRP was tested. Which “shrunken log2 fold change” value did it give?
Answer: The value was -0.108.

Question: Which “shrunken log2 fold change” value does the source give for RRIRARPPRLPRPRPRPGAVPRP here?
Answer: The value was 0.578.

Question: With RRIRCRPPRLPRPRPRPMVDPRP as the sequence, how does the “shrunken log2 fold change” value read?
Answer: The value was 0.02.

Question: Which “shrunken log2 fold change” value does the source give for RRIRTRPPRLPRPRPRPLMHPRP here?
Answer: Its value is -0.454.

Question: With RRIRQRPPRLPRPRPRPTSNPRP as the sequence, how does the “shrunken log2 fold change” value read?
Answer: The value was -0.64.

Question: For RRIRYRPPRLPRPRPRPHTKPRP, which “shrunken log2 fold change” value is on record?
Answer: Its value is -0.149.

Question: With RRIRCRPPRLPRPRPRPLNSPRP as the sequence, how does the “shrunken log2 fold change” value read?
Answer: The value was -0.605.

Question: For RRIRVRPPRLPRPRPRPSNRPRP, which “shrunken log2 fold change” value is on record?
Answer: The value was -0.147.

Question: How did the “shrunken log2 fold change” value turn out when RRIRERPPRLPRPRPRPCPMPRP was run?
Answer: The value was -0.511.

Question: RRIRERPPRLPRPRPRPVWLPRP was tested. Which “shrunken log2 fold change” value did it give?
Answer: The value was -0.0259.

Question: With RRIRHRPPRLPRPRPRPGECPRP as the sequence, how does the “shrunken log2 fold change” value read?
Answer: Its value is -0.377.

Question: With RRIRSRPPRLPRPRPRPQRAPRP as the sequence, how does the “shrunken log2 fold change” value read?
Answer: The value was 0.123.

Question: How did the “shrunken log2 fold change” value turn out when RRIRIRPPRLPRPRPRPRQEPRP was run?
Answer: Its value is -0.131.

Question: How did the “shrunken log2 fold change” value turn out when RRIRKRPPRLPRPRPRPYREPRP was run?
Answer: The value was -0.0243.

Question: How did the “shrunken log2 fold change” value turn out when RRIRQRPPRLPRPRPRPKEWPRP was run?
Answer: The value was -0.00145.

Question: For RRIRERPPRLPRPRPRPSWAPRP, which “shrunken log2 fold change” value is on record?
Answer: The value was -0.24.

Question: RRIRKRPPRLPRPRPRPEQWPRP was tested. Which “shrunken log2 fold change” value did it give?
Answer: The value was -0.0362.

Question: Which “shrunken log2 fold change” value does the source give for RRIRGRPPRLPRPRPRPDVEPRP here?
Answer: The value was 1.27.

Question: For RRIRWRPPRLPRPRPRPFLLPRP, which “shrunken log2 fold change” value is on record?
Answer: Its value is -0.0846.

Question: Which “shrunken log2 fold change” value does the source give for RRIRTRPPRLPRPRPRPCVEPRP here?
Answer: Its value is -0.0492.

Question: RRIRYRPPRLPRPRPRPIFIPRP was tested. Which “shrunken log2 fold change” value did it give?
Answer: The value was -0.631.

Question: Which “shrunken log2 fold change” value does the source give for RRIRYRPPRLPRPRPRPGLEPRP here?
Answer: Its value is 0.114.

Question: Which “shrunken log2 fold change” value does the source give for RRIRTRPPRLPRPRPRPGEKPRP here?
Answer: The value was -0.0135.

Question: Which “shrunken log2 fold change” value does the source give for RRIRERPPRLPRPRPRPVWIPRP here?
Answer: Its value is -0.556.

Question: With RRIRHRPPRLPRPRPRPSSQPRP as the sequence, how does the “shrunken log2 fold change” value read?
Answer: Its value is -0.152.

Question: RRIRLRPPRLPRPRPRPHRYPRP was tested. Which “shrunken log2 fold change” value did it give?
Answer: The value was 0.00601.

Question: With RRIRKRPPRLPRPRPRPGPCPRP as the sequence, how does the “shrunken log2 fold change” value read?
Answer: Its value is 0.393.

Question: How did the “shrunken log2 fold change” value turn out when RRIRFRPPRLPRPRPRPKQQPRP was run?
Answer: The value was 0.146.

Question: With RRIRLRPPRLPRPRPRPQLIPRP as the sequence, how does the “shrunken log2 fold change” value read?
Answer: The value was -0.0529.

Question: How did the “shrunken log2 fold change” value turn out when RRIRHRPPRLPRPRPRPPCTPRP was run?
Answer: The value was 0.0262.

Question: Which “shrunken log2 fold change” value does the source give for RRIRLRPPRLPRPRPRPPYIPRP here?
Answer: Its value is -0.081.

Question: With RRIRWRPPRLPRPRPRPHKQPRP as the sequence, how does the “shrunken log2 fold change” value read?
Answer: Its value is -0.0365.

Question: Which “shrunken log2 fold change” value does the source give for RRIRYRPPRLPRPRPRPGKDPRP here?
Answer: The value was -0.148.

Question: RRIRGRPPRLPRPRPRPNGKPRP was tested. Which “shrunken log2 fold change” value did it give?
Answer: Its value is 0.311.

Question: Which “shrunken log2 fold change” value does the source give for RRIRIRPPRLPRPRPRPLHFPRP here?
Answer: Its value is -0.511.

Question: How did the “shrunken log2 fold change” value turn out when RRIRVRPPRLPRPRPRPFMDPRP was run?
Answer: The value was -0.36.

Question: How did the “shrunken log2 fold change” value turn out when RRIRNRPPRLPRPRPRPLLVPRP was run?
Answer: Its value is -0.199.

Question: RRIRRRPPRLPRPRPRPAANPRP was tested. Which “shrunken log2 fold change” value did it give?
Answer: Its value is 3.
